Results: patent publication US7799901B2, “Modulators of the function of FAS receptors and other proteins” (Yeda Research and Development Co. Ltd., priority 1995, dated 2010)
“Also recorded” adds a separate entry of the source.

B1: MORT1 (92-208) (protein, UniProt Q13158 92-208, looked up, fragment)
chain: PGEEDLCAAFNVICDNVGKDWRRLARQLKVSDTKIDSIEDRYPRNLTERVRESLRIWKNTEKENATVAHLVGALRSCQMNLVADLVQEVQQARDLQNRSGAMSPMSWNSDASTSEAS
B2: MACHα3: MACH isoform, cDNA SEQ ID NO: 19, amino acid SEQ ID NO: 20; lacks an N-terminal part of the CED3/ICE region (protein)
chain: KCKLDDDMNLLDIFIEMEKRVILGEGKLDILKRVCAQINKSLLKIINDYEEFSKGALTTTFEELHFEIKPHDDCTVEQIYEILKIYQLMDHSNMDCFICCILSHGDKGIIYGTDGQEAPIYELTSQFTGLKCPSLAGKPKVFFIQACQGDNYQKGIPVETDSEEQPYLEMDLSSPQTRYIPDEADFLLGMATVNNCVSYRNPAEGTWYIQSLCQSLRERCPRGDDILTILTEVNYEVSNKDDKKNMGKQMPQPTFTLRKKLVFPSD

What was measured:
[1] = system: Fas/APO1 cytotoxicity (p55-Fas chimera) in 293-EBNA cells; format: cell-based, human; details: co-transfection
Protocol: (§1) In brief, 293-EBNA cells, MCF7 human breast carcinoma cells and HeLa HtTA-1 cells were grown in Dulbecco's modified Eagle's minimal essential medium supplemented with 10% fetal calf serum, nonessential amino acids, 100 U/ml penicillin and 100 μg/ml streptomycin. Cell tissue culture dishes (5×10^5 293-EBNA cells, 3×10^5 s MCF7 cells or 3×10^5 HeLa cells in 6-cm dishes) were transiently transfected, using the calcium phosphate precipitation method, with the cDNAs of the indicated proteins together with the β-galactosidase expression vector. In the experiments presented in FIGS. 14A-D and 15, each dish was transfected with 3.5 μg of the indicated MACH construct and 1.5 μg of pSV-β-gal. In the experiments presented in FIGS. 16A-D and 17-19, each dish was transfected with 2.5 μg of the indicated MACH or MORT1 construct (or, as control, empty vector) and 1.5 μg of pSV-β-gal. The cells were rinsed 6 to 10 h after transfection. The 293-EBNA and MCF7 cells were incubated for a further 18 h without additional treatment. […] The extent of cell death at the end of the incubation periods was assessed by determination of β-galactosidase expression, as described by Kumar et al, 1994. […]
(§2) In particular, FIGS. 16A-D show morphology of 293-EBNA cells in which cell death was induced by transient expression of a chimera comprised of the extracellular domain of the p55-R (amino acids 1-168) fused to the transmembrane and intracellular domains of Fas/APO1 (amino acids 153-319) (p55-Fas chimera) (FIGS. 16A and 16B), or by expression of the p55-R (FIGS. 16C and 16D), and of cells that were protected from these cytotoxic effects by their simultaneous transfection with MACHα1 (C360S) (FIGS. 16B and 16D). […] FIG. 17 illustrates the quantification of death induced in 293-EBNA cells by their transfection with p55-Fas chimera or with p55-R, together with an empty vector, a MORT1 deletion mutant lacking the MACH-binding region (MORT1 (92-208)), or MACHα molecules containing a nonfunctional CED3/ICE region. […] Data are from at least two independent experiments and are expressed as in FIGS. 14A-F and 15.

[2] = system: p55-R-induced cytotoxicity in 293-EBNA cells; test: Death of 293-EBNA cells induced by over-expression of p55-R; format: cell-based, human; details: co-transfection
Protocol: as §1, §2

[3] = system: Fas/APO1-induced death of HeLa cells; test: Death of HeLa cells expressing Fas/APO1 induced by anti-Fas/APO1 antibody and cycloheximide; format: cell-based, human; details: HeLa cells transiently expressing Fas/APO1, CH11 0.5 μg/ml, cycloheximide 10 μg/ml
Protocol: (§3) In brief, 293-EBNA cells, MCF7 human breast carcinoma cells and HeLa HtTA-1 cells were grown in Dulbecco's modified Eagle's minimal essential medium supplemented with 10% fetal calf serum, nonessential amino acids, 100 U/ml penicillin and 100 μg/ml streptomycin. Cell tissue culture dishes (5×10^5 293-EBNA cells, 3×10^5 s MCF7 cells or 3×10^5 HeLa cells in 6-cm dishes) were transiently transfected, using the calcium phosphate precipitation method, with the cDNAs of the indicated proteins together with the β-galactosidase expression vector. In the experiments presented in FIGS. 14A-D and 15, each dish was transfected with 3.5 μg of the indicated MACH construct and 1.5 μg of pSV-β-gal. In the experiments presented in FIGS. 16A-D and 17-19, each dish was transfected with 2.5 μg of the indicated MACH or MORT1 construct (or, as control, empty vector) and 1.5 μg of pSV-β-gal. The cells were rinsed 6 to 10 h after transfection. The 293-EBNA and MCF7 cells were incubated for a further 18 h without additional treatment. The HeLa cells were incubated for 26 h after transfection and-then for 5 h in the presence of either anti-Fas.APO1 antibody (CH11, 0.5 μg/ml) or TNF (100 ng/ml), together with cycloheximide (10 μg/ml). The extent of cell death at the end of the incubation periods was assessed by determination of β-galactosidase expression, as described by Kumar et al, 1994.
The HeLa cells were made responsive to Fas/APO1 by transient expression of this receptor. […] These protective effects indicate that MACHα is a necessary component of both the Fas/APO1- and the p55-R-induced signaling cascades for cell death.
In particular, FIGS. 16A-D show morphology of 293-EBNA cells in which cell death was induced by transient expression of a chimera comprised of the extracellular domain of the p55-R (amino acids 1-168) fused to the transmembrane and intracellular domains of Fas/APO1 (amino acids 153-319) (p55-Fas chimera) (FIGS. 16A and 16B), or by expression of the p55-R (FIGS. 16C and 16D), and of cells that were protected from these cytotoxic effects by their simultaneous transfection with MACHα1 (C360S) (FIGS. 16B and 16D). Photographs were taken 26 h after transfection. FIG. 17 illustrates the quantification of death induced in 293-EBNA cells by their transfection with p55-Fas chimera or with p55-R, together with an empty vector, a MORT1 deletion mutant lacking the MACH-binding region (MORT1 (92-208)), or MACHα molecules containing a nonfunctional CED3/ICE region. […] Data are from at least two independent experiments and are expressed as in FIGS. 14A-F and 15.

[4] = system: TNF-induced death of HeLa cells; test: Death of HeLa cells induced by TNF and cycloheximide; format: cell-based, human; details: TNF 100 ng/ml, cycloheximide 10 μg/ml
Protocol: as §3, with “1994. […]” for “1994.”

[5] = system: human embryonic kidney 293-EBNA cells; test: Cell death on overexpression of MACH isoforms in 293-EBNA cells; format: cell-based; details: β-galactosidase-expressing cells with apoptopic morphology, 20 h after transfection
Protocol: (§4) To explore the involvement of MACH in cell-death induction, the effect of overexpression of various MACH isoforms on cell viability was examined. The test was performed by transfecting MACH expression vectors together with a β-galactosidase expression vector as a transfection marker into human embryonic kidney 293-EBNA cells and breast carcinoma MCF7 cells.
as §3
(§5) In particular, FIGS. 14A-D show the morphology of human embryonic kidney 293-EBNA cells transiently expressing the indicated MACH isoforms. The arrows (FIG. 14B) point to apoptopic cells. Photographs were taken 26 h after transfection. […] Data are from three independent experiments with the 293-EBNA cells and two independent experiments with the MCF7 cells.

[6] = system: breast carcinoma MCF7 cells; test: Cell death on overexpression of MACH isoforms in MCF7 cells; format: cell-based, human; details: β-galactosidase-expressing cells with apoptopic morphology, 20 h after transfection
Protocol: as §4, §3, §5

[7] = system: HeLa cells; test: Cell death on overexpression of MACH isoforms in HeLa cells; format: cell-based; details: FIG. 19
Protocol: as §3
To examine the involvement of the CED3/ICE homology region within the MACHα isoforms in their apoptopic effects, cells were transfected with the expression vector for the MACHβ1 isoform, which lacks the CED3/ICE homology region, as well as with expression vectors for MACHα3, which lacks an N-terminal part of the region, and with expression vectors for MACHα1 (C360S) and for a C-terminally truncated mutant of MACHα1 (MACHα1 (1-415)), which lacks one of the residues believed to be critical for CED3/ICE protease function (corresponding to Ser347 in ICE). […]

| Molecule | protection against Fas/APO1 cytotoxicity (p55-Fas chimera) [1] | protection against p55-R-induced cytotoxicity [2] | protection against death induced by anti-Fas/APO1 antibody and cycloheximide [3] | protection against death induced by anti-Fas/APO1 antibody and cycloheximide ([3]; listed as MORT1DD (92-208)) | protection against death induced by TNF and cycloheximide [4] | cell death of transfected 293-EBNA cells [5] | cell death of transfected MCF7 cells [6] | cytotoxicity in transfected HeLa cells [7] |
| --- | --- | --- | --- | --- | --- | --- | --- | --- |
| B1 | protection was also observed | protection was also observed | protection was also observed | prevention | protection was also observed |  |  |  |
| B2 | effective protection | effective protection | effective protection; also recorded: prevention |  | effective protection | No death | No death | somewhat cytotoxic |
